Test results taken from IntAct's records for PubMed 9528852.

B1: Ubiquitin carboxyl-terminal hydrolase BAP1 (Mus musculus), Q99PU7 (parent)
chain: MNKGWLELESDPGLFTLLVEDFGVKGVQVEEIYDLQSKCQGPVYGFIFLFKWIEERRSRRKVSTLVDDTSVIDDDIVNNMFFAHQLIPNSCATHALLSVLLNCSNVDLGPTLSRMKDFTKGFSPESKGYAIGNAPELAKAHNSHARPEPRHLPEKQNGLSAVRTMEAFHFVSYVPITGRLFELDGLKVYPIDHGPWGEDEEWTDKARRVIMERIGLATAGEPYHDIRFNLMAVVPDRRIKYETRLHVLKVNRQTVLEALQQLIRVTQPELIQTHKSQESQLPEESKPASSKSPLGLEAGRTPVASECTQTDGAEEVAGSCPQTTTHSPPSKCKLVVKPPGSSLNGVPPNPAPIVQRLPAFLDNHNYAKSPMQEEEDLAAGVGRSRVPVRAPQQYSEDEDDYEDEDEDVQNTNPAIRYKRKGTGKPGSLSNSSDGQLSVLQPNTINVLTEKLQESQKDLSVPLSIKTSSGAGSPAVAVPTHSQPSPTPSNESTDTASEIGSAFNSPLRSPIRSANPTRPSSPVTSHISKVLFGEDDSLLRVDCIRYNRAVRDLGPVISTGLLHLAEDGVLSPLALTEGGKGSSPSTRSSQGSQGSSGLEEKEVVEVTESRDKPGLNRSSEPLSGEKYSPKELLALLKCVEAEIANYEACLKEEVEKRKKFKIDDQRRTHNYDEFICTFISMLAQEGMLANLVEQNISVRRRQGVSIGRLHKQRKPDRRKRSRPYKAKRQ

Variants of: B1
Settings: with brca1_human BRCA1, P38398
Chain of brca1_human BRCA1, P38398 (P38398 whole entry, looked up): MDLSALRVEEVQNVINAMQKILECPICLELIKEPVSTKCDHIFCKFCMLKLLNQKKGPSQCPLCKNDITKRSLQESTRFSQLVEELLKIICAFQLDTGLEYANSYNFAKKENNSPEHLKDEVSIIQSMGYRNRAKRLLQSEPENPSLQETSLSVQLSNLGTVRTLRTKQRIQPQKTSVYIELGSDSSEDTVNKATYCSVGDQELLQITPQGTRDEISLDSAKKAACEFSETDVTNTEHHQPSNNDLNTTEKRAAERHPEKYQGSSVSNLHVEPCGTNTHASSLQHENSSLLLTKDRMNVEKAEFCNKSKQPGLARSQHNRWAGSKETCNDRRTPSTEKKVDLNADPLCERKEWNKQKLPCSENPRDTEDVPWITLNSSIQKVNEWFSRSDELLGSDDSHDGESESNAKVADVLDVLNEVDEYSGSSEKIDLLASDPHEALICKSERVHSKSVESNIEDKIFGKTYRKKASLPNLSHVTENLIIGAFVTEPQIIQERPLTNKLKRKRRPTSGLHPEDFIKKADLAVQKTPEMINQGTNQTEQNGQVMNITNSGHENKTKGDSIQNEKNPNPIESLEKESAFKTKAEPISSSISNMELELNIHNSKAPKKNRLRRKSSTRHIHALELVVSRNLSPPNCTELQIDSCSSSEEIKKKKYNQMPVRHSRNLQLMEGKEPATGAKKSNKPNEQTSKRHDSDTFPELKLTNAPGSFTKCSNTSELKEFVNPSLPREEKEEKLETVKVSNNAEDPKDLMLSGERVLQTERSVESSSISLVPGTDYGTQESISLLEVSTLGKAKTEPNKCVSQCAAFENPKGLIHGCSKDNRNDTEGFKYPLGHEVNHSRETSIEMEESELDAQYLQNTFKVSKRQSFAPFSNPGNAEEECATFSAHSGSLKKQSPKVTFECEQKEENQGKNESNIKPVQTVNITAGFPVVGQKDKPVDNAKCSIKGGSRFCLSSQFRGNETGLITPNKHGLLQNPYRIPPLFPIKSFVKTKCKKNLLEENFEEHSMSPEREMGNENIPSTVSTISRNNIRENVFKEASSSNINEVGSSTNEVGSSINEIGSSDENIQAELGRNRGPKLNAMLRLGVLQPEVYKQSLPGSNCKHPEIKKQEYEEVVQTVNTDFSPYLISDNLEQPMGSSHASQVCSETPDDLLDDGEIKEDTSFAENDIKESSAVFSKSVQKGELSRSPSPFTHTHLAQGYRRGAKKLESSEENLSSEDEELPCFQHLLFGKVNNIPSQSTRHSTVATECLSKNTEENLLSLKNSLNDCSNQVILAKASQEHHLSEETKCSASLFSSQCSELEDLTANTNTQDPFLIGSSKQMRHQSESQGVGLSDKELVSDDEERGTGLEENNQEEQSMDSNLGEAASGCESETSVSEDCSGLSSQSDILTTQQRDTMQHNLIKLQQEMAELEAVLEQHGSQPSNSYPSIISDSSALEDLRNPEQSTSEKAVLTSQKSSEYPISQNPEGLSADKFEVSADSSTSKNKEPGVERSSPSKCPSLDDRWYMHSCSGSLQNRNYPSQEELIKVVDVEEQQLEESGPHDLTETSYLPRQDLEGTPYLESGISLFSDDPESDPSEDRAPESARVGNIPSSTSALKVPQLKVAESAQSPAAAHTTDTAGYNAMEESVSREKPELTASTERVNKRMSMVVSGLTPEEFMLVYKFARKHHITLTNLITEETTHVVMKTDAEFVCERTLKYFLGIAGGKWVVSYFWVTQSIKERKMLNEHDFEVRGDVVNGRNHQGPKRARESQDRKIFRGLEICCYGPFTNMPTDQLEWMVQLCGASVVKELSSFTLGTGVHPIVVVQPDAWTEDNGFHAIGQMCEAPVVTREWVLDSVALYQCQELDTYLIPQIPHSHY

Variant	effect of a mutation on the interaction
L690P	disrupting interaction
